Measurements taken from patent US20240352121A1 (published 2024).

Assays:
[1] = target: human LAIR-1 fused to the zeta chain of CD3, on UT-140 reporter cells (UniProt P20963 31-164); test: cell binding (flow cytometry)
[2] = target: T1, LAIR-1 (human; form used for the KD not stated) (UniProt Q6GTX8 22-165); test: kinetic binding; replicate 1
T1 chain: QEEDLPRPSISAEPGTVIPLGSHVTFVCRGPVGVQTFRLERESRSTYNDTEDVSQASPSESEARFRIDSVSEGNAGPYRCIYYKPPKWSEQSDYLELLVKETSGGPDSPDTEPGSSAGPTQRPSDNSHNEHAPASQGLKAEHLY

[3] = target: T1, LAIR-1 (human; form used for the KD not …); test: kinetic binding; replicate 2
[4] = target: T1, LAIR-1 (human; form used for the KD not …); test: kinetic binding; replicate 3

B1: hLAIR-1 mAb-Parent (antibody, V domains shown)
VH: EVQLVESGGGLVQPKGSLKLSCAASGFTFNTNAMYWVRQAPGKGLEWVARIRSKSSNYATYYADSVKDRFTISRDDSQSMLYLQMNNLKTEDTARYYCVRGGSGFFAYWGQGTLVTVSA
VL: DIQMAQSSSSFSVSLGDRVTITCKASEDIYIRLAWYQQKPGNAPRLLISTATSLETGVPSRFSGSGSGKDYTLSITSLQTEDVATYYCQQYWSTPYTFGGGTRLEIK
**Q.** For B1, which EC50 [1] is on record?
**A.** 0.15 nM

B2: 11B3 hG1 (antibody, V domains shown)
VH: EVQLVESGGGLVQPKGSLKLSCAASGFTFNTNAMYWVRQAPGKGLEWVARIRSKSSNYATYYADSVKDRFTISRDDSQSMLYLQMNNLKTEDTARYYCVRGGSGFFAYWGQGTLVTVSA
VL: DIQMAQSSSSFSVSLGDRVTITCKASEDIYIRLAWYQQKPGNAPRLLISTATSLETGVPSRFSGSGSGKDYTLSITSLQTEDVATYYCQQYWSTPYTFGGGTRLEIKR
**Q.** What does the source list for B2?
**A.** Kd [2]: 1.25 nM; Kd [3]: 1.16 nM; Kd [4]: 1.95 nM

B3: h11B3 LAIR-1 mAb, Anti-LAIR-1 Variant 6 (h11B3 VL-2 / h11B3 VH-3) (antibody, V domains shown)
VH: EVQLVESGGGLVQPGGSLKLSCAASGFTFNTNAMYWVRQAPGKGLEWVGRIRSKSSNYATYYAASVKGRFTISRDDSKNTLYLQMNSLKTEDTAVYYCVRGGSGFFAYWGQGTLVTVSS
VL: DIQMTQSPSSLSASLGDRVTITCKASEDIYIRLAWYQQKPGKAPRLLISTATSLETGVPSRFSGSGSGTDYTFTISSLQPEDIATYYCQQYWSTPYTFGGGTRLEIK
**Q.** Which Kd [2] does the source give for B3 here?
**A.** 2.38 nM

**Q.** And the Kd [4]?
**A.** 2.34 nM
